Patent US20120190616A1 (IPSEN PHARMA S A S, published 2012)
Where a chain is given by its changes, count along the chain named. Blank lines part the entries; values can stand above or below the binder they belong to.

Target: T1, native IGF-1 receptor of human MCF-7 cells (human, UniProt P08069 31-1367)
T1 construct: whole, on cells; assayed in membranes prepared from MCF-7 cells
Assay: radioligand competition, [125I]IGF-1 on MCF-7 cell membranes
Method: The homogenates were washed twice by centrifugation (39,000 g/10 minutes) and the final pellets were resuspended in 50 mM Tris-HCl containing 2.5 mM MgCl₂ and 0.1% BSA.
Unlabeled competing test peptides were sometimes included. The final assay volume was 0.25 ml. […] The supernatant was decanted and the radioactive particles trapped in the pellet was counted by gamma spectrometry (Wallac LKB, Gaithersburg, Md., USA).

IC50: 2.69 nM
B1: (Arg^27,65,68, Leu^59)hIGF-1(1-70)-OH (ligand)
chain: GPETLCGAELVDALQFVCGDRGFYFNRPTGYGSSSRRAPQTGIVDECCFRSCDLRRLELYCAPLRPARSA
notes: synthetic; free acid C-terminus; disulfides 6-48, 47-52, 18-61

IC50: 0.88 nM
B2: (Pro^27, Lys^28, Asn^59)hIGF-1(1-70)-OH (ligand)
chain: B1 chain with R27P, P28K, L59N, R65K, R68K
notes: as for B1

IC50: 2.89 nM
B3: (Leu^59, Arg^65,68)hIGF-1(1-70)-OH (ligand)
chain: B1 chain with R27K
notes: as for B1

IC50: 19 nM
B4: (Asn^59, Thr^63, des-Leu^64, des-Lys^65, Glu^70)hIGF-1(1-70)-OH (ligand)
chain: GPETLCGAELVDALQFVCGDRGFYFNKPTGYGSSSRRAPQTGIVDECCFRSCDLRRLENYCATPAKSE
notes: synthetic; Leu64 and Lys65 deleted; free acid C-terminus; disulfides 6-48, 47-52, 18-61

IC50: 1.14 nM
B5: (Pro^27, Lys^28, Asn^59)hIGF-1(1-62)-OH (ligand)
chain: GPETLCGAELVDALQFVCGDRGFYFNPKTGYGSSSRRAPQTGIVDECCFRSCDLRRLENYCA
notes: synthetic; free acid C-terminus
